From patent US6855270B2, “Nanoscintillation systems for aqueous-based liquid scintillation counting” (The University of Kentucky Research Foundation, priority 2001, dated 2005)

Legend:
[1] = particle / droplet size by photon correlation spectroscopy (Coulter N4 Plus); assay type: physicochemical
Protocol: To determine the existence of an oil-in-water microemulsion window for the microemulsion precursor, exactly two (2) milligrams of emulsifying wax were weighed accurately into ten separate 7-mL glass vials and melted at 50° C. on a temperature calibrated magnetic hot plate. Water (0.2 μm filtered) was then added (750-1000 μL) to form a homogeneous milky slurry in the stirring water at 50° C. To form the microemulsion precursor, the surfactant polyoxy 20 stearyl ether (100 mM) in water was added (0-250 μL) so that the final surfactant concentration ranged from 0 mM to 25 mM in the ten vials. The microemulsion precursor was then removed from heat (52-54° C.) and allowed to cool to 25° C. while stirring. […] Thus, an apparent microemulsion window was defined. One hundred (100) μL of each cooled system was taken and diluted with 900 μL water. The particle size of the diluted solid nanoparticles was determined using a Coulter N4 Plus Sub-Micron Particle Sizer at 20° C. by scattering light at 90° for 120 seconds. The particle sizes of systems with no surfactant added could not be determined since the systems contained precipitates that were greater than 3000 nm in diameter. […] To determine if the measured droplet sizes in either the microemulsion nanotemplate or the cured solid nanoparticles were due to the presence of surfactant micelles, samples were made as described above with no emulsifying wax and with final surfactant concentrations ranging from 0 mM to 100 mM in water. […] It is likely that the relatively heterogeneous nature of the polymeric surfactant makes the determination of its CMC difficult using conventional techniques. Photon correlation spectroscopy, using a Coulter N4 Plus Submicron Particle Sizer, was used to determine the existence and the size of the surfactant micelles.
Preparation of polyoxyethylene 2 stearyl ether nanoparticles. Three separate samples of polyoxyethylene 2 stearyl ether nanoparticles were engineered using the following process. Polyoxyethylene 2 stearyl ether (2 mg) was melted at 50-55° C. and dispersed in 970 microliters of water at the same temperature. Thirty microliters of solution of Tween 80 (10% v/v in water) was added to produce a clear oil-in-water microemulsion at approximately 55° C. The oil droplet size of liquid polyoxyethylene 2 stearyl ether was measured by photon correlation spectroscopy to be 22.2±1.8 nanometers at approximately 55° C. Polyoxyethylene 2 stearyl ether nanoparticles were cured by three different methods as follows: Method A) cooling of the undiluted oil-in-water microemulsion at 55° C. to room temperature while stirring, Method B) cooling of the oil-in-water microemulsion at 55° C. by placing undiluted in a refrigerator at 4° C., and Method C) diluting (1/10) the oil-in-water microemulsion at 55° C. with water at 4° C. […] Further, Method A illustrated a key advantage of simply allowing the oil-in-water microemulsion to cool to room temperature to form useful solid nanoparticles. This method allows for rapid, reproducible, and cost-effective method to engineer useful nanoparticles.
Preparation of Emulsifying Wax nanoparticles. Three separate samples of emulsifying wax nanoparticles were engineered using the following process. Emulsifying wax (2 mg) was melted at 50-55° C. and dispersed in 970 microliters of water at the same temperature. […] The oil droplet size of liquid emulsifying wax was measured by photon correlation spectroscopy to be 24.5±0.4 nanometers at approximately 55° C. […]

[2] = cited from earlier work
[3] = ASF-pal alone in water, 1340 μg/mL

Question: Which “diameter of nanoparticles entrapping GdAcAc” value [1] does the source give for `CC(=O)C=C(C)[O-].CC(=O)C=C(C)[O-].CC(=O)C=C(C)[O-].[Gd+3]` [GdAcAc, Gadolinium acetylacetonate] here?
Answer: Its value is “about 50 nanometers”.

Question: For `c1ccc(-c2cnc(-c3ccccc3)o2)cc1` [PPO, 2,5-diphenyloxazole], which “classification of water solubility” value [2] is on record?
Answer: Its value is “water-insoluble”.

Question: With “ASF-pal: Asialofetuin derivatized with about 12 palmitate arms per molecule; ligand” as the molecule, how does the “effect of added ASF-pal on particle size of cured solid nanoparticles” value ([1]; 200 μg nanoparticles per 1 mL) read?
Answer: The value was “only a small effect”.

Question: And the “size of micelles formed” value ([1]; ASF-pal alone in water, 67 μg/mL)?
Answer: The value was 3-15 nm.

Question: What about the “size of larger aggregates formed” value [1, 3] of the same molecule?
Answer: The value was 40-300 nm.

Question: What about the “size of micelles formed” value [1, 3] of the same molecule?
Answer: Its value is 3-10 nm.
